Measurements taken from patent US20240270866A1 (Alector, published 2024).
Read-outs that look alike come from different tables or passages of the source.

Experiments:
[1] = target: T1, human SIRPA Fc fusion antigen (human, UniProt P78324 31-373); test: ForteBio Fab monovalent
T1 construct: heterologous signal peptide; not shown: human IgG1 Fc

[2] = target: T1, human SIRPA Fc fusion antigen; test: ForteBio Fab monovalent; remark: listed apart in the source
[3] = target: T2, human SIRPβ1 Fc fusion antigen (human, UniProt O00241 30-371); test: ForteBio Fab monovalent
T2 construct: not shown: human IgG1 Fc
T2 sequence (O00241 30-371 limits assumed): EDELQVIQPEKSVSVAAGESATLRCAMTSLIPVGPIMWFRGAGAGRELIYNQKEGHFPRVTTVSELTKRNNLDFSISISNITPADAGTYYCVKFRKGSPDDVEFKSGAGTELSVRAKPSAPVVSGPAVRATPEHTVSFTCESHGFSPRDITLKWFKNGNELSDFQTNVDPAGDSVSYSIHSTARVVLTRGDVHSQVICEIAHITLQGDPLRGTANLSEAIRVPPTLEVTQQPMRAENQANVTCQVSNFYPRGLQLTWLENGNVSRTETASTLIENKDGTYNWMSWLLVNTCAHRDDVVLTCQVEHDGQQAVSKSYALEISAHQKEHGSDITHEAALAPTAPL

[4] = target: T3, biotinylated human SIRPA (monomer) (human, UniProt P78324 31-373, limits assumed, biotinylated); test: MSD-SET, Fab, equilibrium;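 also: solution equilibrium titration, free antigen captured on antibody-coated MSD plates and detected by electrochemiluminescence with labeled streptavidin, percent free antigen versus titrated antibody fit to quadratic model for KD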
T3 construct: monomer made by IdeS cleavage of a SIRPA Fc fusion; also called recombinant human SIRPA
Method: Antibodies (20 nM in PBS) were coated onto standard bind MSD-ECL plates overnight at 4° C. or at room temperature for 30 min. Plates were then blocked with 1% BSA for 30 min with shaking at 700 rpm, followed by three washes with wash buffer (PBSF+0.05% Tween 20). SET samples were applied and incubated on the plates for 150s with shaking at 700 rpm followed by one wash. Antigen captured on a plate was detected with 250 ng/ml sulfotag-labeled streptavidin in PBSF by incubation on the plate for 3 min. The plates were washed three times with wash buffer and then read on the MSD Sector Imager 2400 instrument using 1× Read Buffer T with surfactant. The percent free antigen was plotted as a function of titrated antibody in Prism and fit to a quadratic equation to extract the KD. To improve throughput, liquid handling robots were used throughout MSD-SET experiments, including SET sample preparation.

Kd [1] | Kd [2] | binding result [3] | Kd [4] | Binder
– | 2.34 nM | no binding (tested: 100 nM) | 0.36 nM | SA-56-93 Fab (Fab, V domains shown, papain Fab) VH: EVQLLESGGGVVQPGRSLRLSCAASGFTFSYYGMSWVRQAPGKGLEWVASIWVDGSNKYYADSVKGRFTISRDNSKNALYLQMNSLRAEDTAVYYCAVSRETYSGPNWFDPWGQGTLVTVSS VL: DIQMTQSPSSVSASVGDRVTITCRASQGISSWLAWYQQKPGKAPKLLIYAASSLQSGVPSRFSGSGSGTDFTLTISSLQPEDFATYYCQQAIYFPITFGGGTKVEIK
– | 2.98 nM | no binding (tested: 100 nM) | 0.52 nM | SA-56-95 Fab (Fab, V domains shown, papain Fab) VH: EVQLLESGGGVVQPGRSLRLSCAASGFTFAHYGMAWVRQAPGKGLEWVAVIWVDGSPKYYADSVKGRFTISRDNSKNTLYLQMNSLRAEDTAVYYCAVARETYSGPNWFDPWGQGTLVTVSS VL: DIQMTQSPSSVSASVGDRVTITCRASQGISSWLAWYQQKPGKAPKLLIYAASSLQSGVPSRFSGSGSGTDFTLTISSLQPEDFATYYCQQAIYFPITFGGGTKVEIK
– | 1.03 nM | no binding (tested: 100 nM) | 0.25 nM | SA-56-89 Fab (Fab, V domains shown, papain Fab) VH: EVQLVESGGGVVQPGGSLRLSCAASGFTFSYYGMSWVRQAPGKGLEWVASIWVDGSNKYYADSVKGRFTVSRDNSKNTLYLQMDSLRAEDTAVYYCARGVETYSGPNWFDPWGQGTLVTVSS VL: DIQMTQSPSSVSASVGDRVTITCRASQGISSWLAWYQQKPGKAPKLLIYAASSLQSGVPSRFSGSGSGTDFTLTISSLQPEDFATYYCQQAIYFPITFGGGTKVEIK
– | 1.64 nM | no binding (tested: 100 nM) | 0.51 nM | SA-56-91 Fab (Fab, V domains shown, papain Fab) VH: EVQLVESGGGVVQPGRSLRLSCAASGFTFAHYGMAWVRQAPGKGLEWVASIWVDGSNKYYADSVKGRFTISRDNSKNTLYLQMNSLRAEDTAVYYCATAVETYSGPNWFDPWGQGTLVTVSS VL: DIQMTQSPSSVSASVGDRVTITCRASQGISSWLAWYQQKPGKAPKLLIYAASSLQSGVPSRFSGSGSGTDFTLTISSLQPEDFATYYCQQAIYFPITFGGGTKVEIK
– | 1.29 nM | no binding (tested: 100 nM) | 0.35 nM | SA-56-92 Fab (Fab, V domains shown, papain Fab) VH: EVQLVESGGGVVQPGRSLRLSCAASGFTFSYYGMSWVRQAPGKGLEWVASIWVDGSNKYYADSVKGRFTISRDNSKNTLYLQMDSLRAEDTAVYYCATGVETYSGPNWFDPWGQGTLVTVSS VL: DIQMTQSPSSVSASVGDRVTITCRASQGISSWLAWYQQKPGKAPKLLIYAASSLQSGVPSRFSGSGSGTDFTLTISSLQPEDFATYYCQQAIYFPITFGGGTKVEIK
– | 0.836 nM | no binding (tested: 100 nM) | 0.16 nM | SA-56-88 Fab (Fab, V domains shown, papain Fab) VH: EVQLVESGGGVVQPGRSLRLSCAASGFTFSYYGMSWVRQAPGKGLEWVASIWVDGSNKYYADSAKGRFTISRDNSKNTLYLQMNSLRAEDTAVYYCAEGKETYSGPNWFDPWGQGTLVTVSS VL: DIQMTQSPSSVSASVGDRVTITCRASQGISSWLAWYQQKPGKAPKLLIYAASSLQSGVPSRFSGSGSGTDFTLTISSLQPEDFATYYCQQAIYFPITFGGGTKVEIK
– | 5.35 nM | no binding (tested: 100 nM) | 1.6 nM | SA-56-96 Fab (Fab, V domains shown, papain Fab) VH: EVQLLESGGGVVQPGRSLRLSCAASGFTFSSYAMGWVRQAPGKGLEWVAVIWVDGSLKYYADSVKGRFTISRDNSKNTLYLQMNSLRAEDTAVYYCATGRETYSGPNWFDPWGQGTLVTVSS VL: DIQMTQSPSSVSASVGDRVTITCRASQGISSWLAWYQQKPGKAPKLLIYAASSLQSGVPSRFSGSGSGTDFTLTISSLQPEDFATYYCQQAIYFPITFGGGTKVEIK

The remaining lines, values behind:

Binder | Kd [1] | Kd [2] | binding result [3] | Kd [4]
SA-28 Fab (Fab, V domains shown, papain Fab) VH: QVQLQESGPGLVKPSQTLSLTCTVSGGSISSGGYYWSWIRQHPGKGLEWIGNIYYSGSTYYNPSLKSRVTISVDTSKNQFSLKLSSVTAADTAVYYCARDSDTSWGGFDYWGQGTLVTVSS VL: EIVLTQSPGTLSLSPGERATLSCRASQSVRSSYLAWYQQKPGQAPRLLIYGASSRATGIPDRFSGSGSGTDFTLTISRLEPEDFAVYYCQQAGVSPYTFGGGTKVEIK | 486 nM | – | – | –
SA-56 Fab (Fab, V domains shown, papain Fab; also called SA-56 (parental)) VH: EVQLVESGGGLVKPGGSLRLSCAASGFTFSSYSMNWVRQAPGKGLEWVSSISSSSSYIYYADSVKGRFTISRDNAKNSLYLQMNSLRAEDTAVYYCARGVETYSGPNWFDPWGQGTLVTVSS VL: DIQMTQSPSSVSASVGDRVTITCRASQGISSWLAWYQQKPGKAPKLLIYAASSLQSGVPSRFSGSGSGTDFTLTISSLQPEDFATYYCQQAIYFPITFGGGTKVEIK | 301 nM | 206 nM | no binding (tested: 100 nM) | –
SA-38 Fab (Fab, V domains shown, papain Fab) VH: QVQLQESGPGLVKPSQTLSLTCTVSGGSISSGGYYWSWIRQHPGKGLEWIGSIYYSGSTYYNPSLKSRVTISVDTSKNQFSLKLSSVTAADTAVYYCAREGAYSLYVNWFDPWGQGTLVTVSS VL: EIVMTQSPATLSVSPGERATLSCRASQSVSSSLAWYQQKPGQAPRLLIFGASTRATGIPARFSGSGSGTEFTLTISSLQSEDFAVYYCQQYDNYPPITFGGGTKVEIK | 281 nM | – | – | –
SA-36 Fab (Fab, V domains shown, papain Fab) VH: not shown VL: EIVLTQSPATLSLSPGERATITCQASQDISSYLAWYQQKPGQAPRLLIYDASNRATGIPARFSGSGSGTDFTLTISSLEPEDFAVYYCQQRTHYPWTFGGGTKVEIK | 2070 nM | – | – | –
SA-35 Fab (Fab, V domains shown) VH: QVQLVQSGAEVKKPGASVKVSCKASGYTFTSYYMHWVRQAPGQGLEWMGIINPSGGSTSYAQKFQGRVTMTRDTSTSTVYMELSSLRSEDTAVYYCAREAGYDIKGFDYWGQGTLVTVSS VL: DIQMTQSPSTLSASVGDRVTITCRASQSISSWLAWYQQKPGKAPKLLIYKASSLESGVPSRFSGSGSGTEFTLTISSLQPDDFATYYCQQYGSFPLTFGGGTKVEIK | 497 nM | – | – | –
SA-39 Fab (Fab, V domains shown, papain Fab) VH: QVQLVQSGAEVKKPGASVKVSCKASGYTFTSYYMVWVRQAPGQGLEWMGIINPSGGSTSYAQKFQGRVTMTRDTSTSTVYMELSSLRSEDTAVYYCAREGGYGYRAYPYGMDVWGQGTTVTVSS VL: DIQMTQSPSSLSASVGDRVTITCQASQDISNSLNWYQQKPGKAPKLLIYDASNLETGVPSRFSGSRSGTDFTFTISSLQPEDIATYYCQQVIILPLTFGGGTKVEIK | 100 nM | – | – | –
SA-16 Fab (Fab, V domains shown, papain Fab) VH: QVQLQQWGAGLLKPSETLSLTCAVYGGSFSGYYWSWIRQPPGKGLEWIGEIDHSGSTNYNPSLKSRVTISVDTSKNQFSLKLSSVTAADTAVYYCARDLGPPGPHLDVWGQGTMVTVSS VL: not shown | 257 nM | – | – | –
